Data: patent publication US7491501B2, “Methods for identifying modulators of intracellular aggregate formation” (Auburn University, priority 2003, dated 2009)

Assays:
Format in all cases: cell-based
[1] = target: T1, p62-TRAF6 interaction (Homo sapiens, UniProt Q9Y4K3); test: p62-TRAF6 interaction in HEK cells after IL-1 stimulation, p62 UBA domain pull-down (FIG. 2C); conditions: increasing doses of peptide
T1 construct: endogenous in cells; host or cells: HEK 293
T1 sequence (Q9Y4K3 1-522): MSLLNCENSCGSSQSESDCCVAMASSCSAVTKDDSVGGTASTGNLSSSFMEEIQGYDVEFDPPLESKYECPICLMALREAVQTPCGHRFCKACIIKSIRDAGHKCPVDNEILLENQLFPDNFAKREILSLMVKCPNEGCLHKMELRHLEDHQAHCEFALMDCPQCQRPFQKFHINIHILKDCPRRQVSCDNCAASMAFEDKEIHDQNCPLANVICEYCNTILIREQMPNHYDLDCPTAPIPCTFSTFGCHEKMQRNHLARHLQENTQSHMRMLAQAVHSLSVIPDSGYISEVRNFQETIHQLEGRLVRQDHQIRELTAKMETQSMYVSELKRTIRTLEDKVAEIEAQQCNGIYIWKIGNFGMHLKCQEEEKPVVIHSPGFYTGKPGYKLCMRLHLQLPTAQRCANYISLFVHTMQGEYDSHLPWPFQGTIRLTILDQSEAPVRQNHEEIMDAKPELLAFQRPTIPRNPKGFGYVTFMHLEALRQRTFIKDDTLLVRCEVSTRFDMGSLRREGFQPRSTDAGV
Method: GST Pull-Down Assay—Glutathione beads coupled with p62 UBA domain were washed three times with binding buffer (20 mM Tris-HCl, pH 7.6, 50 mM NaCl, 0.1% Nonidet P-40, […], 1 mM phenylmethylsulfonyl fluoride) containing 25 μg/ml of BSA. For each mg of lysate, 2.5 μg of GST-UBA domain was added and rotated for 2 h at room temperature. The beads were washed 3 times with binding buffer and boiled in SDS-PAGE sample buffer, followed by separation employing a 7.5% SDS-gel, and western blotting with appropriate antibody.
A peptide (plain type, SEQ ID NO. 6) containing the TRAF6-binding motif present in p62 (underlined type) along with the hydrophobic sequence containing the cell-permeable motif (italicized type) from Kaposi fibroblast growth factor signal sequence was synthesized ([…]-[…]) (SEQ ID NO. 4) or a control peptide with mutant amino acids in the interaction motif (AAVA […]-[…])(SEQ ID NO. 5). […] HEK cells were treated or not with increasing doses of control or TRAF6 inhibitory peptide, followed by stimulation with IL-1. Lysates were prepared and included in a pull-down employing the UBA domain of p62. Should the p62-UBA domain bind K63-polyubiquitinated substrate proteins, a dose-dependent reduction in interaction of the lysates would occur with lysates prepared from cells pretreated with TRAF6 inhibitory peptide. In fact, this is what was found (FIG. 2C).

[2] = target: T2, interaction of p62 with TRAF6 (Rattus norvegicus, UniProt B5DF45); test: TRAF6 immunoprecipitation and Western blot for p62/UbcH7 in NGF-stimulated PC12 cells; conditions: NGF 15 min
T2 construct: followed by NGF stimulation for 15 min and immunoprecipitation of TRAF6 followed by Western blotting for p62; endogenous in cells; host or cells: PC12
Method: Immunoprecipitation and Western blotting—Each mg of lysate/inclusion bodies was incubated with 41 ng of primary antibody at 4° C. for 3 h and then with 50 μl of 50% agarose-coupled secondary antibody for 2 more hours at 4 C. The beads were washed three times with lysis buffer, eluted by adding SDS-PAGE sample buffer, and subjected to SDS-PAGE in 7.5-12% acrylamide gels. Immunoblotting was performed on nitrocellulose membranes and analyzed by western blotting with ECL detection reagents (Amersham Biosciences).
(§1) The region spanning amino acids 225-251 is necessary for the interaction of p62 with TRAF6. The peptide containing TRAF6 binding motif in p62 along with the hydrophobic sequence containing the cell-permeable motif from Kaposi fibroblast growth factor sequence, […]-[…] (SEQ ID NO. 4) and control peptide […]-[…] (SEQ ID NO. 5) was synthesized. As a preliminary step, PC12 cells were pretreated with various concentrations of peptide for 5 h, followed by NGF stimulation for 15 min and immunoprecipitation with TRAF6 and western blotted with p62. […] The peptide was then tested for its ability to block NGF-induced tau polyubiquitination (FIG. 13A).
(§2) The peptide containing the TRAF6-binding motif in p62 along with the hydrophobic sequence containing the cell-permeable motif from Kaposi fibroblast growth factor signal sequence […]-[…] (SEQ ID NO. 4) and control peptide […]-[…] (SEQ ID NO. 5) was synthesized. As a preliminary step, PC12 cells were pretreated with different concentrations (75-300 μM) of TRAF6 peptide for 5 hours followed by NGF stimulation for 15 min and immunoprecipitation of TRAF6 followed by Western blotting for p62. […] To address whether TRAF6 peptide affects the interaction of p62 and UbcH7 with TRAF6, PC12 cells were treated with or without 150 μM of control peptide or TRAF6 peptide for 5 hours and then stimulated with NGF for 15 min. By immunoprecipitating TRAF6, TRAF6 peptide (150 μM) abrogated the interaction of p62 with TRAF6, but not UbcH7, upon NGF treatment (FIG. 8A). […] The ability of the TRAF6 peptide to impair the ubiquitination process was investigated. Lysates recovered from NGF treated cells were immunoprecipitated with TrkA receptor antibody and blotted for ubiquitin or the receptor (FIG. 15B). […] The ability of the peptide to interrupt the formation of the functional TrkA-p62-TRAF6-UbcH7 complex on NGF stimulation as well was also investigated. TrkA was immunoprecipitated and blotted for the presence of each protein in the complex (FIG. 15C).

[3] = tested on: tau polyubiquitination; test: NGF-induced tau polyubiquitination in PC12 cells (FIG. 13A); conditions: control not shown
Method: as §1

[4] = tested on: TrkA; test: NGF-dependent TrkA ubiquitination and TrkA complex formation in PC12 cells (FIG. 15B, 15C); conditions: TrkA immunoprecipitation
Method: as §2

[5] = tested on: internalization of NGF by PC12 cells; test: Internalization of NGF, 125I-NGF binding assay in PC12 cells (FIG. 15D); conditions: PC12 cells pretreated with peptide (150 μM); control not shown
Method: Additionally, PC12 cells were pretreated or not with TRAF6 peptide (150 μM) followed by measurement of internalized receptor employing 125I-NGF binding assay (FIG. 15D). […] Similarly, the level of internalized NGF was measured in PC12 cells transfected with wild-type ubiquitin, K48R or K63R ubiquitin mutants (FIG. 15E). Transfection of ubiquitin, or K48R mutant was without any effect on internalization of NGF. By comparison, transfection of K63R ubiquitin mutant totally abrogated internalization of the ligand. […] Thus, p62 serves as an adaptor, as well as, a scaffold for TRAF6-directed ubiquitination and K63 chains play a signaling role for internalization and sorting of the receptor.

T2 sequence (B5DF45 whole entry): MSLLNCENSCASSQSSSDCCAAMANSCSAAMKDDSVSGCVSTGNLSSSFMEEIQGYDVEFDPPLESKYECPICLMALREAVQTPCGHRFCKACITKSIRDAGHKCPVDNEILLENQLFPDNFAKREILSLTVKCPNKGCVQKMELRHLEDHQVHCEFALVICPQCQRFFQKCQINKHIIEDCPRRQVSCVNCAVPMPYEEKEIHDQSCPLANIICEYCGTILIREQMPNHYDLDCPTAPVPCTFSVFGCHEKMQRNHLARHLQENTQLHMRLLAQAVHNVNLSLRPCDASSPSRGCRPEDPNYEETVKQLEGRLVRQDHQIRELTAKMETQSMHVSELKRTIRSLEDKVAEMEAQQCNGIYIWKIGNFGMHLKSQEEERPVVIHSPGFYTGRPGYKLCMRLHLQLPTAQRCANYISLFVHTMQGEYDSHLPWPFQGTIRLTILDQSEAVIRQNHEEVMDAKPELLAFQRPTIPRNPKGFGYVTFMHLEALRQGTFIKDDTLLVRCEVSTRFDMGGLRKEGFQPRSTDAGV
T2 sequence (D3Z8W5 1-154 partner): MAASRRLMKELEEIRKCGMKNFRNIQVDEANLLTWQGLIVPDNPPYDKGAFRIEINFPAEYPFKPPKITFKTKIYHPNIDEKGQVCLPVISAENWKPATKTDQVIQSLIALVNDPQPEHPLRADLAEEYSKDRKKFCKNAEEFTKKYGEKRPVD

AAVALLPAVLLALLAP-ESASGPSEDPSVNFLK (AAVALLPAVLLALLAPESASGPSEDPSVNFLK; artificial sequence for cell permeable peptide) [TRAF6 peptide]
p62-TRAF6 interaction [1]: blocked p62-TRAF6 interaction in a dose-dependent fashion | interaction of UbcH7 with TRAF6 ([2]; 150 μM peptide 5 hours): not | interaction of p62 with TRAF6 ([2]; 150 μM peptide 5 hours): completely abrogated | optimum dose to block the interaction of p62 with TRAF6 ([2]; 75-300 μM peptide 5 hours, not shown): 150 µM | concentration of peptide found to block TRAF6 interaction with p62 ([2]; peptide 5 h, not shown): One hundred and fifty | NGF-induced tau polyubiquitination [3]: completely abrogated | TRAF6 and UbcH7 interacting with TrkA ([4]; NGF stimulation): eliminated | interaction of p62 and TrkA ([4]; NGF stimulation): did not disrupt | NGF-dependent ubiquitination of TrkA ([4]; NGF treated): effectively abolish | internalization of NGF [5]: significantly blocked
